Reference: the RNAGym collection of RNA variant scans (doi:10.1021/acssynbio.7b00057)

B1: Pistol ribozyme (parent)
chain: GGGUCGUUGUUCCAUAAUCGCGUGGAUAUGGCACGCAAGUUUCUACCGGGCACCGUAAAUGUCCGACUGGAGCCGUUCGGGCGGCUAUAAACAGACCUCAGGCCCGAAGCGUGGCGGCACCUGCCGCCGGUGGUAAAAAAGAUCGGAAGAGCACACGUCU

Variants of: B1
Experiment: aptazyme ON/OFF ratio, guanine; higher = stronger switching; co-transcriptional cleavage with and without guanine

Going from U8C G9C U10A U11G C12U C13A to U8G G9A U10C C12G, the “aptazyme ON/OFF ratio” value rises from 1.19 to 1.2.

Going from U7C U8G G9C U10A C12U C13G to U7G U8A G9A U10A U11C C12U C13A, the “aptazyme ON/OFF ratio” value falls from 1.13 to 1.07.

Going from U7A U11G C12A C13G to U8C G9U U10C U11C C12A C13U, the “aptazyme ON/OFF ratio” value falls from 1.25 to 1.07.

First: U7G U8G G9C U10G C12U
Second: U7C U8G G9C C12G C13U
The “aptazyme ON/OFF ratio” value of the first is lower: 1.17 for the first, 1.18 for the second.

Going from U7G U8A G9U U11G C13U to U7G U8A U10C U11A C12G, the “aptazyme ON/OFF ratio” value rises from 1.07 to 1.54.

Compared with U7C U8C G9U U10C U11A C12A, G9U C12A C13G is higher in “aptazyme ON/OFF ratio” value: 1.26 for the first, 1.45 for the second.

Compared with U7C G9A U11A C12A C13U, U8A G9A U10A C13A is higher in “aptazyme ON/OFF ratio” value: 1.21 for the first, 1.26 for the second.

Compared with U8G G9C U10C C12G C13G, U7C U8A U10C U11C C13U is lower in “aptazyme ON/OFF ratio” value: 1.06 for the first, 1.01 for the second.

Going from U8C G9C C12U C13U to U7A U8C G9U U11C C12U C13U, the “aptazyme ON/OFF ratio” value rises from 1.13 to 1.17.

Compared with U7G U8A G9C C13G, U7A U8G G9U U10C U11G C13A is higher in “aptazyme ON/OFF ratio” value: 1.02 for the first, 1.28 for the second.

First: U7G U8C G9U C13G
Second: U7C U8C G9A U11G C12A C13A
The “aptazyme ON/OFF ratio” value of the first is lower: 1.04 for the first, 1.3 for the second.

First: U7C U8A G9A U10A U11G C12U C13A
Second: U7C U8C G9A U10C U11C C13U
The “aptazyme ON/OFF ratio” value of the first is higher: 1.21 for the first, 1.19 for the second.

First: U7G U8C U10G C12G C13G
Second: U8A G9C U11A C13G
The “aptazyme ON/OFF ratio” value of the first is higher: 1.13 for the first, 1.06 for the second.

Going from U7G U8A G9U U10A U11G C13G to U8G G9A U10C C12A, the “aptazyme ON/OFF ratio” value rises from 1.03 to 1.25.

First: U8G G9U U11A C13U
Second: U7G U8A G9A U10A U11C C12U
The “aptazyme ON/OFF ratio” value of the first is higher: 1.25 for the first, 1.04 for the second.

Going from U8C U10C U11G C12U C13A to U7A U8G G9C U11A C12A C13U, the “aptazyme ON/OFF ratio” value rises from 1.26 to 1.47.

Going from U7G G9C U10A U11C C12A C13G to U7G U8C G9U U10C U11C C12G C13A, the “aptazyme ON/OFF ratio” value rises from 1.23 to 1.45.

Going from U7A G9U U10C U11G C12G to U7G G9C U10A C12G C13U, the “aptazyme ON/OFF ratio” value rises from 1.09 to 1.28.

First: U8A U10G U11G C13G
Second: U7A U10A U11A C12A C13A
The “aptazyme ON/OFF ratio” value of the first is higher: 1.28 for the first, 1.23 for the second.

First: U7C U8G G9U U10G U11G C12U C13G
Second: U7A G9U U10C U11A C13G
The “aptazyme ON/OFF ratio” value of the first is higher: 1.18 for the first, 1.1 for the second.

First: U7C U8G U10C U11G C12G C13U
Second: U7G U10G U11G C12U C13G
The “aptazyme ON/OFF ratio” value of the first is lower: 1.11 for the first, 1.17 for the second.

First: U7A U8G G9C C12U C13U
Second: U7A U8A U10A C13A
The “aptazyme ON/OFF ratio” value of the first is higher: 1.21 for the first, 1.11 for the second.

Going from U7C U8A U10A U11G C12A C13G to U7G G9A U10C U11C C12A C13G, the “aptazyme ON/OFF ratio” value rises from 1.17 to 1.19.

U7G G9A U10A U11G C12U C13U and U7C U8A G9C U10G U11G C12G C13A are the same in “aptazyme ON/OFF ratio” value: 1.11 for the first, 1.11 for the second.

First: U7G U8G G9C U10A
Second: U7G U8C G9A U10A U11C C12A
The “aptazyme ON/OFF ratio” value of the first is higher: 1.58 for the first, 1.31 for the second.

Going from U7G U8G G9A U10A C12U C13U to U7C U8A U10C U11C C13A, the “aptazyme ON/OFF ratio” value falls from 1.35 to 1.04.

Compared with U10A U11A C12U C13G, U7A G9A U10C U11C C13U is lower in “aptazyme ON/OFF ratio” value: 1.35 for the first, 1.02 for the second.

Compared with U7A G9C U10G U11C C12G C13A, U7A U8C G9U U10A C12A C13U is higher in “aptazyme ON/OFF ratio” value: 1.11 for the first, 1.18 for the second.

Compared with U7G G9A C13G, U7A G9C U10G U11A C12U C13A is lower in “aptazyme ON/OFF ratio” value: 1.11 for the first, 1.06 for the second.

First: U7C U8G U10G U11C
Second: U7G U8A G9U U10C U11C C12U C13U
The “aptazyme ON/OFF ratio” value of the first is higher: 1.09 for the first, 1.06 for the second.

Compared with U8C G9C U10C C13G, U7A U8A G9U U10A U11C C13A is higher in “aptazyme ON/OFF ratio” value: 1.05 for the first, 1.08 for the second.

Going from U7G U8A G9C U11A C12A C13A to U7C G9C U10A U11A C12A C13G, the “aptazyme ON/OFF ratio” value rises from 1.01 to 1.08.

First: U8G U10G U11G C12A C13U
Second: U7A U8A G9A U10A U11G C13A
The “aptazyme ON/OFF ratio” value of the first is higher: 1.18 for the first, 1.17 for the second.

U7G U8C G9U U10G U11A C12U and U7G U8A G9A U11C C12A C13U are the same in “aptazyme ON/OFF ratio” value: 1.1 for the first, 1.1 for the second.

First: U7A U8G G9C U10A U11A C12U C13G
Second: U7G U8G G9U U10C U11C C13G
The “aptazyme ON/OFF ratio” value of the first is higher: 1.34 for the first, 1.21 for the second.

Compared with U7G U8A G9U U11A C12U C13G, U8G G9U U10C U11A C12A C13U is higher in “aptazyme ON/OFF ratio” value: 1.07 for the first, 1.09 for the second.

Going from U7A U10G C12G C13G to G9C U10G U11G C13G, the “aptazyme ON/OFF ratio” value rises from 1.08 to 1.12.

Compared with G9A U10A U11C C13A, U7C G9C U10A U11C C13U is lower in “aptazyme ON/OFF ratio” value: 1.13 for the first, 1.02 for the second.

First: U7A U8A G9A U11G C12A C13G
Second: U7G U8C U10G U11A C12G
The “aptazyme ON/OFF ratio” value of the first is lower: 1.11 for the first, 1.13 for the second.

Going from U7A G9C U10C U11A C12A C13A to U8C G9C U11G C12U C13U, the “aptazyme ON/OFF ratio” value rises from 1.07 to 1.1.

Going from U7A G9C U11C to U7C U8C G9U U10G U11C C12G, the “aptazyme ON/OFF ratio” value rises from 1.07 to 1.24.

In the case of U7A U8C G9C U10A U11A C12G, the “aptazyme ON/OFF ratio” value is reported as 1.13.
